Assay results from article PMC10837151.

Molecular target: asymmetric nucleosome with H2B-Ser6 tri-ADP-ribose on one side only (Nuc-H2B-ADPr3) (Xenopus laevis | not stated) (UniProt P02281)
Test: cryo-EM structure; modified nucleosomes at 1 µM, ALC1 at 6 µM, ADP-BeF3 at 1 mM, incubated 60 minutes on ice before vitrification

Chain of ALC1 (Amplified in Liver Cancer 1), wild-type construct (16-879) (Q86WJ1 16-879): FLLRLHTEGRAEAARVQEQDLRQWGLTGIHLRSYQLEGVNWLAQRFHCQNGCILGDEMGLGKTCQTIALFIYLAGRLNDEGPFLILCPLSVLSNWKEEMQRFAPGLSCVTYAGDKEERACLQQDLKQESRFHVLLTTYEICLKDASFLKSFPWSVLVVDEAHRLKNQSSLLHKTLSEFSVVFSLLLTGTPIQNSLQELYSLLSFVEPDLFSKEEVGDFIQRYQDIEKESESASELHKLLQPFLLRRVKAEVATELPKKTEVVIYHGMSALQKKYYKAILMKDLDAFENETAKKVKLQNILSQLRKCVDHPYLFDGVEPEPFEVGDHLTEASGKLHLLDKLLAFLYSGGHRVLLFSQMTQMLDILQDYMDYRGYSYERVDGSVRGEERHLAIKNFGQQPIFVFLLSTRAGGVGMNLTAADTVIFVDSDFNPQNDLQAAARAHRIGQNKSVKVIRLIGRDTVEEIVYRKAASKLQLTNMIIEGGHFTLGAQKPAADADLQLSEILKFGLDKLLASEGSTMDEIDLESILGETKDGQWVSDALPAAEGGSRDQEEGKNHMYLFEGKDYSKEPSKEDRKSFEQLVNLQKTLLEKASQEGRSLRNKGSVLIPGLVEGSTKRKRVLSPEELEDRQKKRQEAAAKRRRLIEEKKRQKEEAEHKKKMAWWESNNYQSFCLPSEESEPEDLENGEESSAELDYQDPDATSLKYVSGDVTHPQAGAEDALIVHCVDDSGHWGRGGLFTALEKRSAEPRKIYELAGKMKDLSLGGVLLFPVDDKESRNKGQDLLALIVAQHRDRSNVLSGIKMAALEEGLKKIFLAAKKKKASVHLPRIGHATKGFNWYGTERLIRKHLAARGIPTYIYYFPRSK

With “ALC1 (Amplified in Liver Cancer 1), wild-type construct (16-879) (from UniProt Q86WJ1 16-879) (enzyme)” the stoichiometry N was 1.
